The target of data set [1] is T1, BRCA1 (Homo sapiens, UniProt P38398 1-1863). The data set is described as follows: EMSA; 1 mM EDTA; 10 nM substrate; 25 mM Tris-HCl pH 7.5, 90 mM KCl, 1 mM EDTA, 1 mM DTT, 0.1 mg/ml BSA, RNaseOUT; 37 C 30 min; 10 nM substrate (competition: 1 nM, 10 + 10 min); 6% native PAGE at 4 C. Particulars: protein: recombinant; tags: C-terminal 10xHis; N-terminal 2xMBP cleaved off with PreScission; blunt. (In general: A gel shift assay detects complexes by their altered migration in electrophoresis.)

Data set [2] has as its target T2, BRCA1;BARD1 (Homo sapiens;Homo sapiens, UniProt P38398;Q99728 1-1863;1-777, |). The data set is described as follows: EMSA; 1 mM EDTA; 10 nM substrate; resistant to increasing salt (Supplementary Fig. 5a); 25 mM Tris-HCl pH 7.5, 90 mM KCl, 1 mM EDTA, 1 mM DTT, 0.1 mg/ml BSA, RNaseOUT; 37 C 30 min; 10 nM substrate (competition: 1 nM, 10 + 10 min); 6% native PAGE at 4 C. Particulars: protein: recombinant;recombinant; tags: C-terminal 10xHis; N-terminal 2xMBP cleaved off with PreScission;; copies: 1;1; blunt.

Data set [3] concerns the target T1, BRCA1. In words: EMSA; 1 mM EDTA; 10 nM substrate; affinity comparable to dsDNA; 25 mM Tris-HCl pH 7.5, 90 mM KCl, 1 mM EDTA, 1 mM DTT, 0.1 mg/ml BSA, RNaseOUT; 37 C 30 min; 10 nM substrate (competition: 1 nM, 10 + 10 min); 6% native PAGE at 4 C. Particulars: protein: recombinant; tags: C-terminal 10xHis; N-terminal 2xMBP cleaved off with PreScission; blunt.
In data set [4] the target is T2, BRCA1;BARD1. The data set is described as follows: EMSA; 1 mM EDTA; 10 nM substrate; affinity comparable to dsDNA; resistant to increasing salt (Supplementary Fig. 5a); 25 mM Tris-HCl pH 7.5, 90 mM KCl, 1 mM EDTA, 1 mM DTT, 0.1 mg/ml BSA, RNaseOUT; 37 C 30 min; 10 nM substrate (competition: 1 nM, 10 + 10 min); 6% native PAGE at 4 C. Particulars: protein: recombinant;recombinant; tags: C-terminal 10xHis; N-terminal 2xMBP cleaved off with PreScission;; copies: 1;1; blunt.

B1: X12-3/X12-4C dsDNA 50 bp (dsDNA)
DNA 1: GACGTCATAGACGATTACATTGCTAGGACATGCTGTCTAGAGACTATCGC
DNA 2: GCGATAGTCTCTAGACAGCATGTCCTAGCAATGTAATCGTCTATGACGTC
Consider B1, for which the binding result in data set [1] and in data set [2] was “binds” each time.

B2: X12-3 DNA/X12-4C RNA hybrid 50 bp (DNA:RNA)
DNA: B1 DNA 1
RNA: GCGAUAGUCUCUAGACAGCAUGUCCUAGCAAUGUAAUCGUCUAUGACGUC
modifications: second strand RNA
On to B2, for which the binding result in data set [3] and in data set [4] was “binds” throughout.

The values above are taken from article PMC6299093, “BRCA2 controls DNA:RNA hybrid level at DSBs by mediating RNase H2 recruitment”.
